Results on twelve substances are retold here after patent US20160009789A1.

One test concerns the target Du156.12. Kind of test: ELISA. In general terms: In an ELISA, binding on a coated surface is turned into a signal by an enzyme label.
Take VRC01 Heavy chain: A56G: the EC50 worked out at 0.101 µg/mL. Still for that read-out and setting: the same measure for VRC01 Heavy chain: I30T: 0.063 µg/mL; for VRC01 Heavy chain: K52N: 0.056 µg/mL. Still for that read-out and setting: as for VRC01 Heavy chain: P62K, the figure is 0.066 µg/mL; as for VRC01 Heavy chain: R53N, 0.063 µg/mL. The same measure, in the same setting: as for VRC01 Heavy chain: R61Q, the figure is 0.086 µg/mL. Substance VRC01 Heavy chain: T33Y gave an EC50 of 0.048 µg/mL.

VRC01 Heavy chain: V57T displayed a concentration giving a half-maximal response (EC50) of 0.164 µg/mL. In turn, VRC01 Heavy chain: V73T came in with an EC50 of 0.097 µg/mL. Still for that read-out and setting: the same measure for VRC01 Heavy chain: Y74S: 0.071 µg/mL; for VRC01 Light chain: Y30S: 0.196 µg/mL.

The next test deals with HXBc2. The test can be described thus: ELISA; deglycosylated.
Consider Deglycosylated VRC01, for which the EC50 stood at 0.045 µg/mL.

The target in another test is Du156.12. The test can be described thus: ELISA; deglycosylated.
Turning to Deglycosylated VRC01, the EC50 was 0.05 µg/mL.

What is called EC50 is the concentration at which the effect is half-maximal.
